The term IC50 denotes the concentration needed to halve the response being measured.

The target in one test is T1, human IGFBP-1 (human, UniProt P08833 26-259).
T1 sequence (looked up): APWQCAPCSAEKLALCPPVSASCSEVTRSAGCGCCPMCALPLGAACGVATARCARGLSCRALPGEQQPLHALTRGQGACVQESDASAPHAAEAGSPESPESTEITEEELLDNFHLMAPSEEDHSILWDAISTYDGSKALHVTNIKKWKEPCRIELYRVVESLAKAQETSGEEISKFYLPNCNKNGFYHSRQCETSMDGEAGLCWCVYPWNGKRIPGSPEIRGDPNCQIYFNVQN
In words: competitive phage ELISA. The protocol:
(§1) E. coli cells (XL1-Blue, Stratagene) freshly transformed with phagemid vector were grown overnight in 5 mL 2YT medium (Sambrook et al., supra) in the presence of M13-VCS helper phage (Stratagene). Phage particles were harvested and resuspended in PBS buffer as described in Lowman, H. B., “Phage Display of Peptide Libraries on Protein Scaffolds,” in Cabilly, S. (ed.), Combinatorial Peptide Library Protocols (Humana Press Inc.: Totowa, N.J., 1998), pp. 249-264. Then phage concentrations were normalized to yield a maximal ELISA signal of 0.2-0.4 for each mutant (Lowman, in Cabilly, S. (ed.), supra). Threefold serial dilutions of soluble competitor were prepared on non-absorbent microtiter plates (Nunc, F, 96 wells) with binding buffer (0.5% TWEEN 20%/PBS) containing phage at the previously determined concentrations. […] After blocking, the plates containing immobilized target were washed with 0.05% TWEEN™/PBS buffer and subsequently incubated with 80 μl/well of the premixed phage-competitor solutions for 1 hour at room temperature. […] IC₅₀ values were determined by fitting the binding data to a generic saturation curve (Lowman, in Cabilly, S. (ed.), supra). At least two individual clones of each IGF-1 mutant were assayed. Numbers in Table XIII represent mean±standard deviation of individually assessed IC₅₀ values.

In test [1] the target is recombinant human IGFBP-3 (human, UniProt P17936 28-291). Description: competitive phage ELISA. The protocol: as §1
Sequence of recombinant human IGFBP-3 (P17936 28-291 limits assumed): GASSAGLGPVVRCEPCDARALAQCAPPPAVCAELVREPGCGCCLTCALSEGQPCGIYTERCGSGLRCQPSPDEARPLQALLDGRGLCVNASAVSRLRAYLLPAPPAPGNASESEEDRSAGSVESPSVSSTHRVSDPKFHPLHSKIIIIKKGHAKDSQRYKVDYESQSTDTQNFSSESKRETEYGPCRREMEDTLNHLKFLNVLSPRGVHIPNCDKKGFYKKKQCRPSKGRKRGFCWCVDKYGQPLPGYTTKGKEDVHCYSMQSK
In general terms: ELISA stands for enzyme-linked immunosorbent assay.

On to “IGF-1 L14A displayed on phage (from UniProt P69168 267-424) (ligand)”, for which, in the test with human IGFBP-1, the IC50 was found to be 36.7 nM and the relative IC50 (mut/G1S-A70V) amounted to 4.5.

For “IGF-1 Q15A displayed on phage (from UniProt P69168 267-424) (ligand)”, the relative IC50 (mut/G1S-A70V) in test [1] amounted to 1.7.

With “IGF-1 G22A displayed on phage (from UniProt P69168 267-424) (ligand)”, in test [1], the IC50 was 2.07 nM and the relative IC50 (mut/G1S-A70V) worked out at 2.8.

In the test with human IGFBP-1, “IGF-1 F25A displayed on phage (from UniProt P69168 267-424) (ligand)” displayed an IC50 of 181 nM and a relative IC50 (mut/G1S-A70V) of 22.1. Besides, in test [1], the IC50 was found to be 3.69 nM and the relative IC50 (mut/G1S-A70V) is 4.9.

For “IGF-1 P28A displayed on phage (from UniProt P69168 267-424) (ligand)”, in test [1], the IC50 stood at 1.41 nM and the relative IC50 (mut/G1S-A70V) was 1.9.

On to “IGF-1 D20A displayed on phage (from UniProt P69168 267-424) (ligand)”, for which, in test [1], the IC50 worked out at 1.11 nM and the relative IC50 (mut/G1S-A70V) was found to be 1.5.

In the test with human IGFBP-1, “IGF-1 L10A displayed on phage (from UniProt P69168 267-424) (ligand)” returned an IC50 of 311 nM and a relative IC50 (mut/G1S-A70V) of 37.9. In test [1], the IC50 is 3.55 nM and the relative IC50 (mut/G1S-A70V) came to 4.7.

Take “IGF-1 Y24A displayed on phage (from UniProt P69168 267-424) (ligand)”: in test [1], the IC50 is 2.53 nM and the relative IC50 (mut/G1S-A70V) is 3.4.

In the test with human IGFBP-1, “IGF-1 D12A displayed on phage (from UniProt P69168 267-424) (ligand)” came in with an IC50 of 4.3 nM and a relative IC50 (mut/G1S-A70V) of 0.5.

In the case of “IGF-1 F23A displayed on phage (from UniProt P69168 267-424) (ligand)”, in test [1], the IC50 was 2.18 nM and the relative IC50 (mut/G1S-A70V) is 2.9.

In the test with human IGFBP-1, “IGF-1 V17A displayed on phage (from UniProt P69168 267-424) (ligand)” displayed an IC50 of 42.9 nM and a relative IC50 (mut/G1S-A70V) of 5.2. Moreover, in test [1], the IC50 was 3.67 nM and the relative IC50 (mut/G1S-A70V) turned out to be 4.9.

B1: IGF-1 D45A displayed on phage (ligand, not shown: large carriers; small tags and cut ends)
chain: SPETLCGAELVDALQFVCGDRGFYFNKPTGYGSSSRRAPQTGIVAECCFRSCDLRRLEMYCAPLKPAKSV
notes: G1S-A70V background
Turning to B1, the IC50 worked out at 4.7 nM in the test with human IGFBP-1 and 0.69 nM in test [1].

B2: IGF-1 L57A displayed on phage (ligand, not shown: large carriers; small tags and cut ends)
chain: SPETLCGAELVDALQFVCGDRGFYFNKPTGYGSSSRRAPQTGIVDECCFRSCDLRRAEMYCAPLKPAKSV
modifications: not fully specified; ends and bridges not checked
notes: G1S-A70V background
With B2, the IC50 stood at 21.8 nM with human IGFBP-1 and 1.78 nM in test [1].

B3: IGF-1 S51A displayed on phage (ligand, not shown: large carriers; small tags and cut ends)
chain: SPETLCGAELVDALQFVCGDRGFYFNKPTGYGSSSRRAPQTGIVDECCFRACDLRRLEMYCAPLKPAKSV
modifications: not fully specified; ends and bridges not checked
notes: G1S-A70V background
As to B3, the IC50 with human IGFBP-1 is 13.4 nM; in test [1] it was 0.65 nM.

B4: IGF-1 V44A displayed on phage (ligand, not shown: large carriers; small tags and cut ends)
chain: SPETLCGAELVDALQFVCGDRGFYFNKPTGYGSSSRRAPQTGIADECCFRSCDLRRLEMYCAPLKPAKSV
notes: G1S-A70V background
As for B4, the IC50 worked out at 18.8 nM with human IGFBP-1 and 1.03 nM in test [1].

B5: IGF-1 R56A displayed on phage (ligand, not shown: large carriers; small tags and cut ends)
chain: SPETLCGAELVDALQFVCGDRGFYFNKPTGYGSSSRRAPQTGIVDECCFRSCDLRALEMYCAPLKPAKSV
modifications: not fully specified; ends and bridges not checked
notes: G1S-A70V background
Consider B5, for which the IC50 came out at 13.1 nM with human IGFBP-1 and 1 nM in test [1].

B6: IGF-1 I43A displayed on phage (ligand, not shown: large carriers; small tags and cut ends)
chain: SPETLCGAELVDALQFVCGDRGFYFNKPTGYGSSSRRAPQTGAVDECCFRSCDLRRLEMYCAPLKPAKSV
notes: G1S-A70V background
For the molecule B6, the figures for the IC50 (in the test with human IGFBP-1; in test [1]) were 31.3 nM and 1.17 nM, respectively.

B7: IGF-1 T41A displayed on phage (ligand, not shown: large carriers; small tags and cut ends)
chain: SPETLCGAELVDALQFVCGDRGFYFNKPTGYGSSSRRAPQAGIVDECCFRSCDLRRLEMYCAPLKPAKSV
notes: G1S-A70V background
For B7, the IC50 was found to be 13.7 nM with human IGFBP-1 and 0.43 nM in test [1].

B8: IGF-1 R50A displayed on phage (ligand, not shown: large carriers; small tags and cut ends)
chain: SPETLCGAELVDALQFVCGDRGFYFNKPTGYGSSSRRAPQTGIVDECCFASCDLRRLEMYCAPLKPAKSV
notes: G1S-A70V background
In the case of B8, the figures for the IC50 (in the test with human IGFBP-1; in test [1]) were 16.2 nM and 0.64 nM, respectively.

B9: IGF-1 R55A displayed on phage (ligand, not shown: large carriers; small tags and cut ends)
chain: SPETLCGAELVDALQFVCGDRGFYFNKPTGYGSSSRRAPQTGIVDECCFRSCDLARLEMYCAPLKPAKSV
modifications: not fully specified; ends and bridges not checked
notes: G1S-A70V background
Regarding B9, the figures for the IC50 (with human IGFBP-1; in test [1]) were 9 nM and 0.66 nM, respectively.

B10: IGF-1 F49A displayed on phage (ligand, not shown: large carriers; small tags and cut ends)
chain: SPETLCGAELVDALQFVCGDRGFYFNKPTGYGSSSRRAPQTGIVDECCARSCDLRRLEMYCAPLKPAKSV
notes: G1S-A70V background; also called IGF-F49A phage
As to B10, the relative IC50 (mut/G1S-A70V) with human IGFBP-1 was > 100. In test [1], the IC50 worked out at 2.72 nM.

B11: IGF-1 M59A displayed on phage (ligand, not shown: large carriers; small tags and cut ends)
chain: SPETLCGAELVDALQFVCGDRGFYFNKPTGYGSSSRRAPQTGIVDECCFRSCDLRRLEAYCAPLKPAKSV
modifications: not fully specified; ends and bridges not checked
notes: G1S-A70V background
In the case of B11, the values for the IC50 (in the test with human IGFBP-1; in test [1]) were 13.1 nM and 0.74 nM, respectively.

B12: IGF-1 E46A displayed on phage (ligand, not shown: large carriers; small tags and cut ends)
chain: SPETLCGAELVDALQFVCGDRGFYFNKPTGYGSSSRRAPQTGIVDACCFRSCDLRRLEMYCAPLKPAKSV
notes: G1S-A70V background
For the molecule B12, the IC50 was found to be 7.9 nM in the test with human IGFBP-1 and 0.94 nM in test [1].

B13: IGF-1 E58A displayed on phage (ligand, not shown: large carriers; small tags and cut ends)
chain: SPETLCGAELVDALQFVCGDRGFYFNKPTGYGSSSRRAPQTGIVDECCFRSCDLRRLAMYCAPLKPAKSV
modifications: ends and bridges not checked; also: displayed on M13 phage, fused to g3p fragment (249-406) via amber-codon residue
notes: G1S-A70V background
In the case of B13, the IC50 with human IGFBP-1 worked out at 11.9 nM; in test [1] it was 1.03 nM.

B14: IGF-1 L54A displayed on phage (ligand, not shown: large carriers; small tags and cut ends)
chain: SPETLCGAELVDALQFVCGDRGFYFNKPTGYGSSSRRAPQTGIVDECCFRSCDARRLEMYCAPLKPAKSV
modifications: ends and bridges not checked; also: displayed on M13 phage, fused to g3p fragment (249-406) via amber-codon residue
notes: G1S-A70V background
As for B14, the results for the IC50 (with human IGFBP-1; in test [1]) were 23.1 nM and 1.83 nM, respectively.

B15: IGF-1 D53A displayed on phage (ligand, not shown: large carriers; small tags and cut ends)
chain: SPETLCGAELVDALQFVCGDRGFYFNKPTGYGSSSRRAPQTGIVDECCFRSCALRRLEMYCAPLKPAKSV
modifications: ends and bridges not checked; also: displayed on M13 phage, fused to g3p fragment (249-406) via amber-codon residue
notes: G1S-A70V background
On to B15, for which the IC50 turned out to be 15.3 nM in the test with human IGFBP-1 and 1.05 nM in test [1].

B16: IGF-1 G42A displayed on phage (ligand, not shown: large carriers; small tags and cut ends)
chain: SPETLCGAELVDALQFVCGDRGFYFNKPTGYGSSSRRAPQTAIVDECCFRSCDLRRLEMYCAPLKPAKSV
notes: G1S-A70V background
For B16, the concentration for half-maximal inhibition (IC50) with human IGFBP-1 was determined as 15.7 nM; in test [1], 0.53 nM.

B17: Ala(1-3)-IGF-1 displayed on phage (ligand, bacteriophage M13)
chain: AAATLCGAELVDALQFVCGDRGFYFNKPTGYGSSSRRAPQTGIVDECCFRSCDLRRLEMYCAPLKPAKSVSGGGSGSGDFDYEKMANANKGAMTENADENALQSDAKGKLDSVATDYGAAIDGFIGDVSGLANGNGATGDFAGSNSQMAQVGDGDNSPLMNNFRQYLPSLPQSVECRPFVFSAGKPYEFSIDCDKINLFRGVFAFLLYVATFMYVFSTFANILRNKES
notes: range 249-406
With B17, the IC50 is 90.4 nM with human IGFBP-1 and 1.12 nM in test [1].

B18: IGF-1 P2A displayed on phage (ligand, bacteriophage M13)
chain: SAETLCGAELVDALQFVCGDRGFYFNKPTGYGSSSRRAPQTGIVDECCFRSCDLRRLEMYCAPLKPAKSVSGGGSGSGDFDYEKMANANKGAMTENADENALQSDAKGKLDSVATDYGAAIDGFIGDVSGLANGNGATGDFAGSNSQMAQVGDGDNSPLMNNFRQYLPSLPQSVECRPFVFSAGKPYEFSIDCDKINLFRGVFAFLLYVATFMYVFSTFANILRNKES
notes: range 249-406; G1S-A70V background
B18: the IC50 with human IGFBP-1 turned out to be 11 nM; in test [1] it was 0.81 nM.

For the origin of these results see patent US20090011988A1 (Genentech, published 2009).
